# The supplement of paper PMC10567573
# B1: MNAT1 (parent)
# chain: LAPIHKLEEALYEYQPLQIETYGP
# B2: TBX5 (parent)
# chain: YQNHKITQLKIENNPFAKGFRGSD
# Variants of: B1
# Test: protein stability index of a GFP-peptide fusion (GPS, HEK-293T) (PSI 1-6); higher = more stable
# Conditions: c terminus: a fixed tail appended
# 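Also: lentivirally expressed fusions sorted by FACS into six bins by GFP to DsRed ratio, PSI derived from sequencing read proportions per bin multiplied by bin number.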
row,Variant,protein stability index
1,Y14E,3.43
2,Y14T,3.33
3,Y14D,4.2
4,Y14K,3.53
5,Y14I,2.52
6,Y14Q,2.87
7,Y14V,2.75
8,Y14F,2.1
9,Y14N,2.99
10,Y14S,3.36
11,Y14A,3.19
12,Y14C,2.54
13,Y14R,3.59
14,Y12P,2.23
15,Y12G,2.64
16,Y12N,3.07
17,Y12M,2.25
18,Y12R,2.19
19,Y12E,2.65
20,Y12V,2.13
21,Y12L,2.21
22,Y12C,1.82
23,G23W,1.14

row,Variant,protein stability index
1,G23I,2.07
2,G23P,1.67
3,G23H,2.67
4,G23K,2.86
5,T21P,2.46
6,T21L,3.23
7,T21M,3.53
8,T21E,1.8
9,T21G,1.98
10,T21D,2.31
11,T21Y,2.38
12,T21R,2.09
13,T21F,5.16
14,Q15F,1.17
15,Q15E,2.36
16,Q15D,2.94
17,Q15G,1.52
18,Q15L,1.73
19,Q15C,1.05
20,Q15H,2.08
21,Q15N,1.83
22,Q15S,2.07
23,Q15A,2.17

row,Variant,protein stability index
1,Q15I,1.66
2,Q15Y,1.44
3,E9D,2.25
4,E9M,2.34
5,E9F,2.25
6,E9V,3.14
7,E9Y,1.32
8,E9G,2.62
9,E9R,1.91
10,E9T,2.16
11,E9N,1.78
12,E9I,2.42
13,P16K,1.92
14,P16V,2.23
15,P16F,1.44
16,P16N,2.94
17,P16H,2.43
18,P16L,1.88
19,P16Y,1.52
20,I19W,2.32
21,I19N,3.25
22,I19V,2.63
23,I19F,1.85

row,Variant,protein stability index
1,I19T,2.61
2,I19P,2.79
3,I19S,2.73
4,I4E,2.78
5,I4C,2.49
6,I4S,2.3
7,I4W,1.59
8,I4Q,2.7
9,I4M,1.92
10,L11P,3.17
11,L11E,3.57
12,L11C,2.69
13,L11T,2.57
14,L11N,3.41
15,L11F,2.07
16,L11W,2.14
17,L11Q,3.23
18,E13P,1.68
19,E13L,2.22
20,E13S,1.58
21,E13G,2.37
22,E13Q,1.43
23,E13V,2.04

row,Variant,protein stability index
1,E13W,2.08
2,E13F,2.29
3,E13N,1.61
4,Q18Y,1.37
5,Q18I,1.94
6,Q18L,1.28
7,Q18P,2.76
8,Q18N,1.92
9,Q18H,1.91
10,E8N,1.8
11,E8H,1.67
12,E8W,3.45
13,E8T,2
14,E8R,2.26
15,E8I,3.59
16,E8C,3.13
17,E8F,3.18
18,E8M,3.31
19,E8S,1.75
20,E8Y,2.08
21,E8K,2.52
22,L1C,1.25
23,L1H,1.67

row,Variant,protein stability index
1,L1K,2.33
2,L1D,2.31
3,L1Q,2.47
4,L1I,1.94
5,L1A,2.28
6,L1T,2.33
7,L1N,2.79
8,L17A,2.5
9,L17F,1.84
10,L17R,3.57
11,L17H,3.03
12,L17K,3.19
13,L17P,2.89
14,L17N,3.01
15,L17Q,2.19
16,L17V,3.02
17,L17M,2.33
18,P24L,3.08
19,P24N,2.52
20,P24Y,2.37
21,P24M,1.25
22,P24C,2.67
23,P24S,2.35

row,Variant,protein stability index
1,P24K,2.29
2,P24Q,1.75
3,P3V,2.7
4,P3I,2.72
5,P3L,2.95
6,P3F,2.67
7,P3G,2.02
8,P3M,2.48
9,A10D,2.91
10,A10K,2.52
11,A10I,2.1
12,A10V,2.71
13,A10R,2.05
14,A10C,2.09
15,A10Q,2.42
16,A10H,2.28
17,A10T,1.79
18,A10P,2.73
19,L7W,3.02
20,L7E,3.98
21,L7F,2.37
22,L7Y,2.85
23,L7K,3.54

row,Variant,protein stability index
1,L7V,2.76
2,L7T,3.33
3,L7R,3.06
4,L7G,2.81
5,L7S,3.52
6,Y22Q,2.66
7,Y22I,1.81
8,Y22A,2.18
9,Y22S,2.4
10,Y22K,2.8
11,Y22H,1.91
12,Y22V,1.76
13,Y22F,3.02
14,A2V,2.54
15,A2G,1.45
16,A2M,1.63
17,A2T,2.63
18,A2P,2.3
19,A2D,1.77
20,A2I,1.91
21,A2S,2.29
22,E20T,1.28
23,E20H,1.6

row,Variant,protein stability index
1,E20W,2.88
2,E20I,2.71
3,E20A,1.32
4,H5W,2.34
5,H5P,1.84
6,H5T,1.59
7,H5L,1.88
8,H5A,2.17
9,H5S,2.11
10,H5F,2.03
11,H5Q,2.92
12,H5M,1.71
13,K6W,2.4
14,K6E,2.27
15,K6F,2.75
16,K6Q,2.24
17,K6I,1.4
18,K6G,1.9
19,K6D,1.94
20,K6T,1.84
21,K6V,2.14
22,K6P,2.13

# Variants of: B2
# Test: as above
# Conditions: c terminus: a fixed tail appended
row,Variant,protein stability index
1,K18S,2.31
2,K18Y,2.12
3,K18H,2.09
4,K18Q,2.37
5,K18P,2.54
6,K18M,2.06
7,K18V,2.07
8,K18G,1.81
9,K18W,1.63
10,K18R,2.77
11,K18I,2.49
12,K18N,2.23
13,K18L,2.06
14,K18T,1.67
15,R21W,1.8
16,R21E,2.58
17,R21H,2.52
18,R21V,2.51
19,R21F,2.89
20,R21Q,2.57
21,R21A,2.32
22,R21D,2.95
23,R21K,2.64
24,R21T,2.44
25,R21C,2.34
26,R21Y,2.96

row,Variant,protein stability index
1,R21P,2.74
2,R21M,2.55
3,R21G,2.46
4,R21S,2.76
5,R21N,2.61
6,R21I,2.19
7,R21L,2.15
8,S23Q,2.71
9,S23A,2.25
10,S23W,2.02
11,S23M,2.18
12,S23I,2.12
13,S23D,2.83
14,S23R,2.63
15,S23T,2.3
16,S23N,2.39
17,S23V,2.35
18,S23E,2.42
19,S23C,2.49
20,S23Y,2.55
21,S23G,2.59
22,S23H,2.47
23,S23K,2.64
24,S23F,1.92
25,S23P,2.55
26,S23L,2.11

row,Variant,protein stability index
1,G19C,1.74
2,G19A,2.75
3,G19R,2.22
4,G19D,2.7
5,G19S,2.76
6,G19E,3.99
7,G19H,2.55
8,G19V,2.31
9,G19L,2.05
10,G19Y,2.36
11,G19F,2.16
12,G19M,2.29
13,G19K,2.59
14,G19P,2.85
15,G19W,1.88
16,G19T,2.53
17,G19I,1.85
18,G19Q,3.1
19,G19N,2.19
20,G22A,2.37
21,G22F,1.74
22,G22L,2.02
23,G22R,2.12
24,G22M,2.49
25,G22C,2.24
26,G22I,2.48

row,Variant,protein stability index
1,G22Q,2.83
2,G22Y,2.63
3,G22S,2.57
4,G22K,2.49
5,G22V,2.32
6,G22W,1.76
7,G22E,2.33
8,G22T,2.67
9,G22H,2.46
10,G22D,2.56
11,G22N,2.4
12,G22P,3.32
13,D24M,2.43
14,D24H,1.99
15,D24E,2.64
16,D24P,2.39
17,D24V,1.83
18,D24I,2.08
19,D24T,2.11
20,D24L,1.95
21,D24Y,2.04
22,D24S,2.14
23,D24G,2.39
24,D24W,1.32
25,D24Q,1.88
26,D24A,2.43

row,Variant,protein stability index
1,D24N,2.57
2,D24F,1.95
3,D24R,2.69
4,D24C,2.25
5,D24K,2.53
6,F20L,2.79
7,F20T,3.04
8,F20K,3.11
9,F20G,2.98
10,F20H,3.27
11,F20W,2.73
12,F20Q,3.19
13,F20P,2.88
14,F20R,3.02
15,F20I,2.47
16,F20C,2.85
17,F20A,3.41
18,F20D,3.41
19,F20M,2.69
20,F20S,3.23
21,F20V,2.63
22,F20E,3.56
23,F20N,3.28
24,F20Y,2.49
